The values that follow come from the supplement of paper PMC9233669.

Variants at the floor of the assay were thinned out.

The subject of series [1] is biotinyl-Phe-oxazolone. Kind of series: self-aminoacylation, catalytic enhancement (BFO) (fold over background); higher = more active; k-Seq, kA / k0A0; sequences stand for … in GGGAAUGGAUCCACAUCUACGAAUUC…UUCACUGCAGACUUGACGAAGCUG
The essentials: (§1)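 Mutagenized RNA pools (0.43 μM; 21-nt variable region) were treated with 2–1250 μM of each biotinyl-aminoacyl-oxazolone. Conditions were 50 μL HEPES/NaCl/KCl/MgCl2/CaCl2 buffer, 5% acetonitrile, pH 6.9–7.0, room temperature, 90 minutes. Catalytic enhancement, the median kA relative to the uncatalyzed rate, was derived from streptavidin capture, qPCR and Illumina sequencing.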

The test system of series [2] is biotinyl-Ile-oxazolone. The experiment in a line: self-aminoacylation, catalytic enhancement (BIO) (fold over background); higher = more active; k-Seq, kA / k0A0; sequences stand for … in GGGAAUGGAUCCACAUCUACGAAUUC…UUCACUGCAGACUUGACGAAGCUG
Summed up: as §1

Series [3] deals with biotinyl-Met-oxazolone. The experiment in a line: self-aminoacylation, catalytic enhancement (BMO) (fold over background); higher = more active; k-Seq, kA / k0A0; sequences stand for … in GGGAAUGGAUCCACAUCUACGAAUUC…UUCACUGCAGACUUGACGAAGCUG
Summed up: as §1

Series [4] deals with biotinyl-Val-oxazolone. The experiment in a line: self-aminoacylation, catalytic enhancement (BVO) (fold over background); higher = more active; k-Seq, kA / k0A0; sequences stand for … in GGGAAUGGAUCCACAUCUACGAAUUC…UUCACUGCAGACUUGACGAAGCUG
Summed up:
as §1

Series [5] concerns biotinyl-Leu-oxazolone. Kind of series: self-aminoacylation, catalytic enhancement (BLO) (fold over background); higher = more active; k-Seq, kA / k0A0; sequences stand for … in GGGAAUGGAUCCACAUCUACGAAUUC…UUCACUGCAGACUUGACGAAGCUG
Summed up: as §1

The subject of series [6] is biotinyl-Trp-oxazolone. Kind of series: self-aminoacylation, catalytic enhancement (BWO) (fold over background); higher = more active; k-Seq, kA / k0A0; sequences stand for … in GGGAAUGGAUCCACAUCUACGAAUUC…UUCACUGCAGACUUGACGAAGCUG
The essentials: as §1

Regarding “AAGUUUUCUAAUAGUAGCAAG [Fam3.1 aminoacylation ribozyme variant]”, the self-aminoacylation in series [1] was determined as 2.5; in series [2], 1.5; in series [3], 1.29; in series [4], 1.34; in series [5] it was 1.33; in series [6], 1.8.

Turning to “AUUCUCCUAGGUGAUCGGGUG [Fam2.2 aminoacylation ribozyme variant]”, the self-aminoacylation in series [1] came out at 26.4; in series [2], 3.17; in series [3], 3.62; in series [4] it was 3.62; in series [5], 4.94; in series [6], 4.65.

“AUUACCCUGGUCUUCGUGUGA [Fam2.1 aminoacylation ribozyme variant]”: the self-aminoacylation was found to be 7.45 in series [1]; 1.05 in series [2]; 1.46 in series [3]; 1.02 in series [4]; 1.45 in series [5]; 1.93 in series [6].

Regarding “AAGUUUGCUAAUAGUCUCCAG [Fam3.1 aminoacylation ribozyme variant]”, the self-aminoacylation in series [1] came to 1.59; in series [2], 1.1; in series [3], 0.855; in series [4], 0.947; in series [5], 0.909; in series [6], 1.02.

For the sequence “AUUCACCCAGGUCAUCGGGUC [Fam2.2 aminoacylation ribozyme variant]”, the self-aminoacylation was found to be 6.42 in series [1]; 1.14 in series [2]; 1.5 in series [3]; 1.88 in series [4]; 1.92 in series [5]; 1.39 in series [6].

With “AUUCAUCUAGGUCAUCGCGUG [Fam2.2 aminoacylation ribozyme variant]”, the self-aminoacylation in series [1] is 128; in series [2], 7.55; in series [3], 14.2; in series [4] it was 7.87; in series [5], 18.5; in series [6], 11.3.

Consider “AAGUUUGCUAUUAGUCCCAAG [Fam3.1 aminoacylation ribozyme variant]”, for which the self-aminoacylation in series [1] turned out to be 1.45; in series [2], 0.989; in series [3] it was 0.99; in series [4] it was 1.02; in series [5], 1.04; in series [6], 2.

Consider “AUUGACCUAGGUGAUCGGGUG [Fam2.2 aminoacylation ribozyme variant]”, for which the self-aminoacylation in series [1] was found to be 25.9; in series [2] it was 4.21; in series [3], 4.22; in series [4] it was 3.78; in series [5], 5.78; in series [6] it was 6.18.

As for “CCGCACUUCAAGCAUUCGGUC [Fam1B.1 aminoacylation ribozyme variant]”, the self-aminoacylation in series [1] stood at 1.88; in series [2], 2.17; in series [3], 1.85; in series [4], 2.28; in series [5], 1.62; in series [6], 1.76.

Take “CUACUUCAAACAAUAGGUCUA [Fam1A.1 aminoacylation ribozyme variant]”: the self-aminoacylation in series [1] came out at 0.832; in series [2], 0.755; in series [3], 0.699; in series [4], 0.776; in series [5] it was 0.639; in series [6], 0.756.

Consider “AUUCACCUCGGACAUCGGGUG [Fam2.2 aminoacylation ribozyme variant]”, for which the self-aminoacylation in series [1] turned out to be 40.1; in series [2] it was 3.09; in series [3], 4.76; in series [4], 4.74; in series [5], 6.78; in series [6], 5.08.

As for “CAACACUUCAGGCAAUCGGUC [Fam1B.1 aminoacylation ribozyme variant]”, the self-aminoacylation was 1.27 in series [1]; 1.43 in series [2]; 1.12 in series [3]; 1.19 in series [4]; 1.34 in series [5]; 1.3 in series [6].

In the case of “UUACUUCAAACAAUCGGACUG [Fam1A.1 aminoacylation ribozyme variant]”, the self-aminoacylation in series [1] was determined as 7.94; in series [2], 1.08; in series [3] it was 1.26; in series [4], 0.854; in series [5], 0.969; in series [6], 4.92.
